Reference: patent US20190375786A1, “STABLE PEPTIDES AND METHODS OF USE THEREOF” (Fred Hutchinson Cancer Research Center, priority 2016, published 2019)
Entries after “also recorded” stand apart in the source; their conditions may differ.

Legend:
[1] = Resistance to reduction by DTT, RP-HPLC; format: physicochemical; settings: 10 mM DTT; HPLC vs non-reduced peptide
Summary of the method: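 Peptide (12.5 μg from a 2 mg/ml stock, or 0.015 mM final in PBS) was held 30 min at room temperature with or without 10 mM DTT. Reduced and non-reduced forms were compared by C-18 RP-HPLC using a 5–45% acetonitrile/0.1% TFA gradient over 10 min, with detection at 214 and 280 nm.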

[2] = Stability in simulated gastric fluid (SGF, pH 1.05), RP-HPLC; format: physicochemical; settings: HPLC vs non-reduced peptide
Procedure: (§1) Peptides were first suspended in 500 ul of ddH2O to a stock concentration of 2 mg/ml. Reactions were prepared by adding 12.5 ug of peptide from the stock solution to a 10 mM solution of DTT in PBS and allowed to incubate at room temperature for 30 minutes. Other reactions were prepared with 12.5 μg peptide with or without 500 U/ml pepsin in simulated gastric fluid (SGF; pH 1.05; […] sodium chloride in 0.7% (v/v) hydrochloric acid) and were incubated for 30 minutes at 37.5° C. Some reactions were quenched with a final concentration of 100 mM Tris base and 10 mM dithiothreitol (DTT). Some reactions were performed in all of the above components, including simulated gastric fluid, pepsin, Tris, and DTT (referred to as SPTD). Reversed phase HPLC (RP-HPLC) was run on samples using an Agilent 1260 HPLC equipped with a C-18 Poroshell 120B column. Sample were analyzed by a gradient method with a mobile phase of Solvent A (water with 0.1% TFA) and Solvent B (acetonitrile with 0.1% TFA). Solvent B was ramped up from 5%-45% of the mobile phase over a period of 10 minutes. Peptides were detected at an absorbance of 214 nm and 280 nm.
This example illustrates peptide stability in biological conditions including in the presence of reducing agents, proteases, oxidative conditions, acidic conditions, and simulated gastric fluids. […] Various peptides were suspended in 500 μl of ddH2O at a stock concentration of 2 mg/ml. This was then diluted in accord with the reaction conditions to prevent adverse buffering effects. Reactions were prepared with 12.5 μg peptide dissolved in solution and, in some samples, additionally suspended in a 10 mM solution of DTT, simulated gastric fluid (pH 1.05; […] sodium chloride in 0.7% (v/v) hydrochloric acid), 500 U pepsin (5000 U/ml pepsin), 50 U trypsin (500 U/ml trypsin) with 1 mg/ml inhibitor in PBS, or a combination of any of these conditions. All protease reactions were incubated for 30 min at room temperature and then quenched. Pepsin reactions were quenched by adding Tris base to a final concentration of 0.075 M. Trypsin reactions were quenched by adding excess soybean trypsin inhibitor. RP-HPLC was then run on samples using an Agilent 1260 HPLC equipped with a C-18 Poroshell 120B column. Sample were analyzed by a gradient method with a mobile phase of Solvent A (water with 0.1% TFA) and Solvent B (acetonitrile with 0.1% TFA). Solvent B was ramped up from 5%-45% of the mobile phase over a period of 10 minutes.

pepsin [3] = biological target: T1, pepsin (Sus scrofa, UniProt P00791); experiment: Stability in SPTD (simulated gastric fluid, pepsin, Tris and DTT), RP-HPLC; format: in vitro ADME; settings: SGF pH 1.05 with 500 U/ml pepsin, 100 mM Tris, 10 mM DTT
Procedure: as §1

trypsin [4] = biological target: T2, trypsin (Sus scrofa, UniProt P00761); experiment: Trypsin digestion resistance of soluble peptide, RP-HPLC; format: in vitro ADME, porcine; parameters: purchased Sigma Aldrich 6567; settings: 50 U trypsin (500 U/ml), 30 min at room temperature, with or without 10 mM DTT; HPLC
Summary of the method: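 12.5 μg soluble peptide digested with 500 U/ml porcine trypsin in PBS, 30 min at 37.5° C; quenched with soybean trypsin inhibitor, with or without 10 mM DTT reduction afterwards. Intact peptide assessed by C-18 RP-HPLC, 5-45% acetonitrile/0.1% TFA gradient over 10 min.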

pepsin [5] = biological target: T1, pepsin; experiment: Pepsin digestion resistance in simulated gastric fluid, RP-HPLC; format: in vitro ADME, porcine; parameters: purchased Sigma Aldrich P7012; settings: HPLC
Summary of the method: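 Peptide (12.5 μg) incubated 30 min at 37.5 °C with or without 500 U/ml pepsin in simulated gastric fluid (pH 1.05; 2% NaCl in 0.7% HCl); some reactions quenched with 100 mM Tris and 10 mM DTT. Intact peptide followed by C-18 RP-HPLC (5–45% acetonitrile/0.1% TFA over 10 min) at 214 and 280 nm.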

[6] = Circular dichroism in neutral, SDS and acidic buffers; format: physicochemical
Procedure: CD spectra were measured with a Jasco J-720W spectropolarimeter using a 1.0 mm path length cell. Lyophilized peptide samples were resuspended in ultra pure water. CD runs were carried out by diluting peptides in 20 mM phosphate buffer saline (pH 7.4), 20 mM phosphate buffer saline (pH 7.4) supplemented with 1% sodium dodecyl sulfate (SDS), or phosphate buffer saline at pH 4. Peptides were diluted to 15-25 μM in concentration. Data are shown in terms of total molar ellipticity [θ]; (deg cm^2 dmol^−1).

[7] = Combined resistance grouping of hitchin peptides (FIG. 27, from Table 2 data); format: physicochemical; settings: FIG. 27 grouping of hitchin peptides
Procedure: As shown by the data in TABLE 2, the tested peptides of the present disclosure show a range of resistance to proteases, reduction, and high temperature. The peptides were classified as high, medium, or low for each condition. […] For example, after a peptide is treated at 100° C., if the HPLC peak of the peptide is mostly absent as compared to HPLC peak of the peptide not treated at 100° C., then the peptide is classified as low or having low resistance to 100° C. After a peptide is treated with reducing conditions, if there is no or very minimal HPLC peak that overlaps with the HPLC peak of the peptide not treated with reducing conditions, then the peptide is classified as low or having low resistance to reducing conditions.
The peptides with the highest resistance data were further analyzed. […] The six peptides that were further tested were peptides comprising the sequences of SEQ ID NO: 27, SEQ ID NO: 24, SEQ ID NO: 6, SEQ ID NO: 10, SEQ ID NO: 12, and SEQ ID NO: 57, which were all hitchins. […] FIG. 27C is a sequence analysis of SEQ ID NO: 27, SEQ ID NO: 24, SEQ ID NO: 6, SEQ ID NO: 10, SEQ ID NO: 12, and SEQ ID NO: 57 from FIG. 27B. FIG. 27C identifies which amino acids are present at each position in SEQ ID NO: 27, SEQ ID NO: 24, SEQ ID NO: 6, SEQ ID NO: 10, SEQ ID NO: 12, and SEQ ID NO: 57. For example, at position one, all peptide sequences comprise a G amino acid residue; at position two, all peptide sequences comprise an S amino acid residue; at position three, all peptide sequences comprise either G, Q, or V amino acid, or null; and at position four, all peptide sequences comprise V, R, or K amino acid, or null. […] SEQ ID NO: 167 and SEQ ID NO: 168 describe sequences of peptides that are particularly resistant to reduction, pepsin, 75° C., and 100° C., which would typically degrade peptides. […] Additionally, SEQ ID NO: 169 describes sequences of peptides that are also particularly resistant to trypsin.

[8] = Resistance to reduction by reduced glutathione (GSH), HPLC; format: physicochemical; settings: 10 mM reduced glutathione (GSH); HPLC vs non-reduced peptide
Procedure: This example describes stability of designed or engineered peptides under reducing conditions. Peptides that are designed or engineered to interact with one or more target proteins in the cell, such as proteins in the nucleus, are exposed to reducing conditions in the cytosolic compartment of cells. Thus, it is advantageous for peptides of this disclosure to display stability in reducing conditions. Stability of peptides of this disclosure was tested in 10 mM DTT and 10 mM GSH. GSH is a more physiologically relevant reducing agent for testing peptide stability in intracellular conditions. An example of a peptide-target protein interaction is a peptide binding to a TEAD protein.

trypsin [9] = biological target: T2, trypsin; experiment: SDPR surface display protease resistance, anti-6xHis staining, trypsin; format: cell-based; settings: HEK-293 cells, up to 40 μg/ml trypsin for 20 minutes
Procedure: (§2) Soluble peptides were exposed to 500 U/mL porcine trypsin and analyzed by HPLC. Protease resistance was also assessed by using SDPR-displaying peptides. The SDPR vector is similar to the a surface display GFP FasL(SDGF) vector, but contains a C-terminal 6×His tag (SEQ ID NO: 180) and all basic or aromatic amino acid residues on the stalk removed. Protease resistance is then tested by incubation of cells displaying peptides with trypsin or chymotrypsin, followed by incubation in 10 mM DTT, and staining with an anti-6×His fluorophore-labeled antibody (“6×His” disclosed as SEQ ID NO: 180). If peptides are uncleaved, they retain the His tag and are stained with by the antibody. A control protease-sensitive knottin peptide (SK) was used as a positive control. Cells displaying peptides were treated with up to 40 μg/ml trypsin or chymotrypsin.
(§3) To determine the impact of protease treatment or reducing condition on the function of the peptides, i.e., binding activity, various binding or functional assays can be performed. […] After treatment with the protease and reducing agent, any linearized peptide product or degradation product resulting from reduction and/or proteolysis by treatment with a protease can be detected or analyzed by staining against the 6×His tag (SEQ ID NO: 180). […]

chymotrypsin = experiment: SDPR surface display protease resistance, anti-6xHis staining, chymotrypsin; format: cell-based; settings: HEK-293 cells, up to 40 μg/ml chymotrypsin for 20 minutes
Procedure: as §2, §3

T1 sequence (P00791 60-385): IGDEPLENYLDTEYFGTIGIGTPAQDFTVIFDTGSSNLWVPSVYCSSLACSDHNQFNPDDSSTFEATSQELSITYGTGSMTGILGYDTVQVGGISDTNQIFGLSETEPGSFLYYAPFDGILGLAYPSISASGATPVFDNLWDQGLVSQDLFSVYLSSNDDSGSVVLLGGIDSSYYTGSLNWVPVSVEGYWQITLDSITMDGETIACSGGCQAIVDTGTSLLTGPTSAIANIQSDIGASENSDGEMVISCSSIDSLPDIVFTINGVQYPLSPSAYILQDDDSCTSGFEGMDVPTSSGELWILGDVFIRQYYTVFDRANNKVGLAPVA
T2 sequence (P00761 9-231): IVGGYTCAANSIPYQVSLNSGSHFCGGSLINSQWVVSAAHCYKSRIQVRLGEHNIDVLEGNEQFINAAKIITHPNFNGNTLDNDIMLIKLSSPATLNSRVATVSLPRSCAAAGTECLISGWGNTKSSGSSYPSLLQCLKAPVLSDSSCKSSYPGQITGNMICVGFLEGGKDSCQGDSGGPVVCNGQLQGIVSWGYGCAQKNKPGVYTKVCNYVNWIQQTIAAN

## GSGVPINVRCRGSRDCLDPCRRAGMRFGRCINSRCHCTP [SEQ ID NO: 31]
[1]
  resistance to reduction by DTT (in words): highly resistant; also recorded: remained intact; also recorded: intact and resistant
[2]
  stability in simulated gastric fluid / low pH (in words): highly resistant; also recorded: remained intact; also recorded: intact and resistant
Pepsin [3]
  resistance in SPTD (SGF, pepsin, Tris, DTT) (in words): highly resistant
Trypsin [4]
  resistance to trypsin, Example 7 conditions (in words): remained intact; also recorded: resistant
Pepsin [5]; 500 U pepsin (5000 U/ml) in SGF, 30 min at room temperature, with or without DTT
  resistance to pepsin, Example 7 conditions (in words): remained intact; also recorded: resistant
Pepsin [5]; 500 U/ml pepsin (50 U per reaction) in SGF, 30 minutes at 37.5° C.
  resistance to pepsin digestion (in words): highly resistant

## GSVFINVKCRGSPECLPKCKEAIGKSAGKCMNGKCKCYP [SEQ ID NO: 37]
[6]; pH 4
  secondary structure by CD in phosphate buffer saline at pH 4: retained its secondary structure
[6]; pH 7.2
  secondary structure by CD in phosphate buffer saline at pH 7.2: retained its secondary structure
[6]; pH 7.2, 1% sodium dodecyl sulfate
  secondary structure by CD in phosphate buffer saline at pH 7.2 with 1% SDS: lost secondary structure
[7]
  combined resistance to reduction, pepsin and elevated temperatures such as 75° C. and 100° C.: not highly resistant

## PDEYIERAKECCKKQDIQCCLRIFDESKDPNVMLICLFCW [SEQ ID NO: 126]
[8]
  resistance to GSH reducing conditions: resistant
Trypsin [9]
  resistance of surface-displayed peptide to cleavage by trypsin: partially resistant
chymotrypsin
  resistance of surface-displayed peptide to cleavage by chymotrypsin: partially resistant
